# Test results taken from the DeepSol protein solubility set.
# Assay: soluble on expression in E. coli; label from the status in PepcDB or PDB records
row,Sequence,soluble on expression in E. coli
1,MAHHHHHHMNVKVEEGHPYNSYAEIKKRKTKKKKYIQNGRAGNNVEDNVDDNVEDNVGNNVDDNVEDNVGNNVDDNVDNNVDDNVKNRLSPKNNEKSNPRHKKKNTSKSPICDGRKKDIEFHTLYESDEKNNMVSRRSSVESIGEEKDMKADVKKNDINYKVKLNTLMLQSYLHKSYDKVSNILKKTSQTFMKKSLSYETEKVDDKTGNNIQNNNNEKNETHGNINYDQDDFVQNFNKIFNNMIENPTNDLSEEEKKFFEQNSQCINKMLHENASCQKNKKEKILKKYKKKIIENKDISSLYDKFKELLDERTLLFKLIIYYKNINYNYKQHIDKIQHSYDILISENEQLNLNNITLKKHIDLFRKGDNIKRDDNEYVK,soluble
2,MGRKVKPLASMKKHLTNDERDQRKDAEKALFDYPSLDLTPPDWLHDRALTEWQRVAPYLKANTPISELDRAMLASYCRAYATVQTCENDIRKNGLVQTNQKSGVRKPNPYVALQSQAMKDVKALANDLGMSLSSRARMELNKQKDETPEDTFEAMLS,not soluble
3,MGSDKIHHHHHHMVGIVLASHGNFAEGIYQSAEMIFGKQQNVQTVTLSPNEGPEDFLNKLKQAIDSFDDQKQVLLLIDLWGGTPFNQSSGLLSGHEDSWAVVTGMNLPMVIEAYGSRSSMDSAQEIATHIIETGKDGIRIKPESLEPKKATATVKSSGQPHGTIAPGTVLGDGKIKYVLARVDSRLLHGQVAMSWTKSTNPNRILVVSDSVAKDRLRKSMIVEAAPPGVNTNVIPIKKMIEVAKDPRFGNTKALVLFENPEDALKTIEGGVDIKELNIGSMSHAVGKVAVNKVLSLGKEDVEAFDGLKKLGVKFDVRKVPGDSSENMDNIVIKLEKIYQVLNLKKIRRV,not soluble
4,MGSDKIHHHHHHMGLTLRQIEVIRAVMIAGTIAGAARLMNVAQPGVSRTMKHIESALGIKLFVKKAGRYVPTDEARDIFAQLQEVHRKVDDLQSSIGQLERGRGVELALGSVPSIANAMMPQAIAGLMRRYPDIRINFDILRIEEAIDYLLLGKGELVAMSYHLTHPSITFEPLSKGHLVCIAAREHPIAGRSRISAREIAEHPLIGIDPRDPYGAIMAGIFEREKLEYRTPIRARFGTTVCALVKRNLGIAVIDAFTVGGMADQGLAVIPISEDTEFQTYVAYRADAALSSYAERLVTTLRRVMDDSTGRSRGGRDA,not soluble
5,MGSDKIHHHHHHMLERAVTYKNNGQINIILNGQKQVLTNAEAEAEYQATLQKNEAKHGILKEIEKEMSALVGMEEMKRNIKEIYAWIFVNQKRAEQGLKVGKQALHMMFKGNPGTGKTTVARLIGKLFFEMNVLSKGHLIEAERADLVGEYIGHTAQKTRDLIKKSLGGIWFIDEAYSLARGGEKDFGKEAIDTLVKHMEDKQHEFILILAGYSREMDHFLSLNPGLQSRFPISIDFPDYSVTQLMEIAKRMIDEREYQLSQEAEWKLKDYLMTVKSTTSPIKFSNGRFVRNVIEKSIRAQAMRLLMGDQYLKSDLMTIKSQDLSIKEEASGSA,not soluble
6,MALELSRLPELLSRIDGYKGQPVTRLAVMLNLLVFIRSSELRYARWSEIDIDNSMWTIPAEREPLPGVKFSHRGSKMRTPHLVPLSKQVVAILAELQTWAGENGLIFTGAHDPRKPISENTVNKALRVMGYDTTQEVCGHGFRAMACSALIESGLWSRDAVERQMSHQERNGVRAAYIHKAEHLEERRLMLQWWADFLDANREKGISPFEYAKINNPLKLEHHHHHH,soluble
7,MAAKPGIPKGTRDFSPVEMAKRNYIFNTIRDVFHLFGYQQIETPSMENLSTLMGKYGDEGDKLLFKIQNSGDYFNGITDEELLSRNAVKLASKFCEKGLRYDLTVPFARYVVMHRDEISFPFKRYQIQPVWRADRPQKGRYREFYQCDADVVGSNSLLNEVELVQMIDRVFGKFGVRVSIKINNRKILTGIAEIIGEADKIVDITVAIDKLDKIGLENVNAELASKGIPQEAIDKLQPIILLSGSNEEKLETLKTVLATSEAGLKGVEESEFILKTVSALGVKSEVELDLTLARGLNYYTGAIFEVKALDVQIGSISGGGRYDNLTGVFGMDGMSGVGISFGADRIFDVLNQLDLYPKEAVNGTELLFVNFGDKEAAYCLPILTKVREAGVRAEIYPDASKMKKQMGYANDKQIPFVAIVGENEMNEGKLTLKNMTTGEQSLVTPDELLAVVKA,not soluble
8,SMVLLTMIARVADGLPLAASMQEDEQSGRDLQQYQSQAKQLFRKLNEQSPTRCTLEAGAMTFHYIIEQGVCYLVLCEAAFPKKLAFAYLEDLHSEFDEQHGKKVPTVSRPYSFIEFDTFIQKTKKLYIDSRARRNLGSINTELQDVQRIMVANIEEVLQRGEALSALDSKANNLSSLSKKYRQDAKYLNMRSTYAK,soluble
9,GVEITEGVTVTAKGNTEGNTADLAIDGDLSTYWESSNDYKWIEVDLGGIYELSKIEIFNKDEAVYKYNIYASEDGENFNKIAYKNNDNVSDSNGNMHTIDNVRAGKIRIDVVQNSNSDRVNIAEINVFGKNTGESLPEVKKIATSNFSETPWATEYEKFNSDSAYANEKTLNEIKNLVGRVIGREFKDKFIFEIRDQLNGNDVFEVSDSGDGKVLIKGNNGVSLASGFNYYLKNYCNVSYNPIMGSNLKMPETMPSVGERVVIDTPYEHRYALNFCTYSYTMSFWDWDQYEEFLDWCAMNGVNLVLDIIGQEEVLRRTLNEFGYSDEEVKEFISGPAYFAWFYMQNMTGFGGPLPNDWFEQRAELGRKMHDRMQSFGINPVLQGYSGMVPRDFKEKNQEAQTISQGGWCGFDRPDMLKTYVNEGEADYFQKVADVFYEKQKEVFGDVTNFYGVDPFHEGGNTGDLDNGKIYEIIQNKMIEHDNDAVWVIQNWQGNPSNNKLEGLTKKDQAMVLDLFSEVSPDWNRLEERDLPWIWNMLHNFGGRMGMDAAPEKLATEIPKALANSEHMVGIGITPEAINTNPLAYELLFDMAWTRDQINFRTWTEDYIERRYGKTNKEILEAWNIILDTAYKKRNDYYQGAAESIINARPGFGIKSASTWGHSKIVYDKSEFEKAIEIFAKNYDEFKDSDAFLYDFADILKQLLANSAQEYYEVMCNAYNNGNGEKFKFVSGKFLELIKLQERVLSTRPEFLIGNWIEDARTMLKDSDDWTKDLFEFNARALVTTWGSRNNADGGGLKDYSNRQWSGLTEDYYYARWEKWINGLQAELDGGAKAPNIDWFKMEYDWVNKKSDTDKLYPTEASNENLGELAKIAMESYSVTNMDKILGENES,soluble
10,MHRLRNLREDVSDGSLGHGGGGLMYDVVVVGAGPAGSMAAKTAAEQGLKVLLVEKRQEIGTPVRCAEGISRESIEKFFEVDKKWIAAEVTGAKIYAPNKTEIVMSEEMAGNEVGYVLERKIFDRHVARLAAKAGAEVYVKTAMVDFERKDGKVKVKLRRLGEDWEVETKILIGADGVESKIGRKAGIIKTLKLNEVESCAQYLMTGLDIDESYTYFYLGRELAPGGYAWIFPKGNGSANVGIGVLPKMAERTAKEYLDAFIEKEGIEGKIVEFVAGAVPVYGEIETAVADNIMLAGDAAYHADPITGGGIANALSAGYYAGKVAAEAVQKNDFSADFLRRYDELWKNDFGKKLRRNKKLQLKFIDMDDALLNKLAGAIAGKNLREMSVAAIVKELLKAHPKLLWDLKDLFLEHHHHHH,soluble
11,MLTEQEKDIIKQTVPLLKEKGTEITSIFYPKMFKAHPELLNMFNQTNQKRGMQSSALAQAVMAAAVNIDNLSVIKPVIMPVAYKHCALQVYAEHYPIVGKNLLKAIQDVTGLEENDPVIQAWAKAYGVIADVFIQIEKEIYDQMMWIGFKPFKITNIKQESEDIKSFTVETEEYDFSEFTPGQYITVDVSSDKLPYRAKRHYSIVSGEKNHLTFGVKRDVTTEHEGEVSTILHDEIKEGDMINLAAPVGGFVLENTTEPQLFLGSGIGVTPLVAMYEAASAKGLDTQMVQVAENEQHLPFKDNFNSIASHHDNAKLYTHLKDKQGYIGAEELQVFLANKPEIYICGGTKFLQSMIEALKSLNYDMDRVHYETFIPRLSVAV,not soluble
12,PDVSALDEVVVEAYGSKTRKITTTGAVTSVDVATLQTPATSLANMLGGRVAGIISTQGSGEPGKNISDFWIRGIGTFGANASALVLIDGLEGSLNDVDPADIESFSVLKDASATAMYGVRGANGVVLVTTKRGKQEK,not soluble
